# Results published in article PMC549569.
# Target: αCP1-KH3 (third KH domain of poly(C)-binding protein 1, PCBP1/hnRNP E1) (UniProt Q15365 279-356)
# Assay: SPR
# Sequence of αCP1-KH3 (third KH domain of poly(C)-binding protein 1, PCBP1/hnRNP E1) (Q15365 279-356): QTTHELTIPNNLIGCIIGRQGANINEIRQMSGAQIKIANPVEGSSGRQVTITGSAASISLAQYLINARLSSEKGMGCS
binder,measurement,value
CUCUCCUUUCUUUUUCUUCUUCCCUCCCUA (ssRNA) [AR mRNA 3'-UTR 30 nt UC-rich RNA (nt 3296-3325)],Kd,4.37 µM
